Experimental findings from patent US20230103631A1, “PEPTIDES AS SELECTIVE GIP RECEPTOR AGONISTS” (Sanofi, priority 2020, published 2023) are described below.

*1 amine or outer side, *2 acyl side, *3 side chain or, on linkers, in order; H or OH if unused. Where no end group is shown, it is not given here. Side-chain parts run from the residue outwards. [ ]: non-standard residue; d: D form. The star is where a group is joined. C20 diacid = O=C(O)CCCCCCCCCCCCCCCCCCC(=O)*; C18 diacid = O=C(O)CCCCCCCCCCCCCCCCC(=O)*; γGlu = O=C(O)[C@H](CCC(=O)[*:2])N[*:1]; NMeY = CN[C@@H](Cc1ccc(O)cc1)C(=O)O; AEEA = NCCOCCOCC(=O)O; Aib = CC(C)(N)C(=O)O Where only a bound is given, the exact number is not on record here.

T1: human GIP receptor (human, UniProt P48546 22-466)
T1 sequence (looked up): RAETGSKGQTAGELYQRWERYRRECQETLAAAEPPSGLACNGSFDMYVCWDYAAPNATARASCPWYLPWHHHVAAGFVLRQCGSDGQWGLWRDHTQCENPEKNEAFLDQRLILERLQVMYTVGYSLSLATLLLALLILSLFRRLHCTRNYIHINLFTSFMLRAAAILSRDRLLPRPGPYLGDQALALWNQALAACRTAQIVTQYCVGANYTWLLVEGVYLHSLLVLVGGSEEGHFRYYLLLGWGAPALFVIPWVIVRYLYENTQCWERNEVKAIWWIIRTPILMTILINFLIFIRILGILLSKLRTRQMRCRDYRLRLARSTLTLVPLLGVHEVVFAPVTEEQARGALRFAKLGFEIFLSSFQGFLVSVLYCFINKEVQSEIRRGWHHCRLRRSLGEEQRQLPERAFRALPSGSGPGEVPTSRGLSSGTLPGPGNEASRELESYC

B1: SEQ ID NO: 4 (peptide)
peptide: Y[Aib]EGTFISDLSI[Aib]K([AEEA-AEEA-γGlu-C18 diacid])DRIHQ[Aib]EFIEWLLAQGPSSGAPPPS-NH2
modifications: N-terminus assumed
SMILES: CC[C@H](C)[C@H](NC(=O)[C@H](CCCNC(=N)N)NC(=O)[C@H](CC(=O)O)NC(=O)[C@H](CCCCNC(=O)COCCOCCNC(=O)COCCOCCNC(=O)CC[C@H](NC(=O)CCCCCCCCCCCCCCCCC(=O)O)C(=O)O)NC(=O)C(C)(C)NC(=O)[C@@H](NC(=O)[C@H](CO)NC(=O)[C@H](CC(C)C)NC(=O)[C@H](CC(=O)O)NC(=O)[C@H](CO)NC(=O)[C@@H](NC(=O)[C@H](Cc1ccccc1)NC(=O)[C@@H](NC(=O)CNC(=O)[C@H](CCC(=O)O)NC(=O)C(C)(C)NC(=O)[C@@H](N)Cc1ccc(O)cc1)[C@@H](C)O)[C@@H](C)CC)[C@@H](C)CC)C(=O)N[C@@H](Cc1c[nH]cn1)C(=O)N[C@@H](CCC(N)=O)C(=O)NC(C)(C)C(=O)N[C@@H](CCC(=O)O)C(=O)N[C@@H](Cc1ccccc1)C(=O)N[C@H](C(=O)N[C@@H](CCC(=O)O)C(=O)N[C@@H](Cc1c[nH]c2ccccc12)C(=O)N[C@@H](CC(C)C)C(=O)N[C@@H](CC(C)C)C(=O)N[C@@H](C)C(=O)N[C@@H](CCC(N)=O)C(=O)NCC(=O)N1CCC[C@H]1C(=O)N[C@@H](CO)C(=O)N[C@@H](CO)C(=O)NCC(=O)N[C@@H](C)C(=O)N1CCC[C@H]1C(=O)N1CCC[C@H]1C(=O)N1CCC[C@H]1C(=O)N[C@@H](CO)C(N)=O)[C@@H](C)CC
notes: Exendin-4 derived synthetic lipidated peptide of formula I
B2: SEQ ID NO: 7 (peptide)
peptide: Y[Aib]EGTFISDLSI[Aib]K([AEEA-AEEA-γGlu-C20 diacid])DRIHQ[Aib]EFIEWLLAQGPSSGAPPPS-NH2
modifications: N-terminus assumed
SMILES: CC[C@H](C)[C@H](NC(=O)[C@H](CCCNC(=N)N)NC(=O)[C@H](CC(=O)O)NC(=O)[C@H](CCCCNC(=O)COCCOCCNC(=O)COCCOCCNC(=O)CC[C@H](NC(=O)CCCCCCCCCCCCCCCCCCC(=O)O)C(=O)O)NC(=O)C(C)(C)NC(=O)[C@@H](NC(=O)[C@H](CO)NC(=O)[C@H](CC(C)C)NC(=O)[C@H](CC(=O)O)NC(=O)[C@H](CO)NC(=O)[C@@H](NC(=O)[C@H](Cc1ccccc1)NC(=O)[C@@H](NC(=O)CNC(=O)[C@H](CCC(=O)O)NC(=O)C(C)(C)NC(=O)[C@@H](N)Cc1ccc(O)cc1)[C@@H](C)O)[C@@H](C)CC)[C@@H](C)CC)C(=O)N[C@@H](Cc1c[nH]cn1)C(=O)N[C@@H](CCC(N)=O)C(=O)NC(C)(C)C(=O)N[C@@H](CCC(=O)O)C(=O)N[C@@H](Cc1ccccc1)C(=O)N[C@H](C(=O)N[C@@H](CCC(=O)O)C(=O)N[C@@H](Cc1c[nH]c2ccccc12)C(=O)N[C@@H](CC(C)C)C(=O)N[C@@H](CC(C)C)C(=O)N[C@@H](C)C(=O)N[C@@H](CCC(N)=O)C(=O)NCC(=O)N1CCC[C@H]1C(=O)N[C@@H](CO)C(=O)N[C@@H](CO)C(=O)NCC(=O)N[C@@H](C)C(=O)N1CCC[C@H]1C(=O)N1CCC[C@H]1C(=O)N1CCC[C@H]1C(=O)N[C@@H](CO)C(N)=O)[C@@H](C)CC
notes: as for B1
B3: SEQ ID NO: 8 (peptide)
peptide: [NMeY][Aib]EGTFISDLSI[Aib]K([AEEA-AEEA-γGlu-C18 diacid])DRIHQ[Aib]EFIEWLLAQGPSSGAPPPS-NH2
modifications: N-terminus assumed
SMILES: CC[C@H](C)[C@H](NC(=O)[C@H](CCCNC(=N)N)NC(=O)[C@H](CC(=O)O)NC(=O)[C@H](CCCCNC(=O)COCCOCCNC(=O)COCCOCCNC(=O)CC[C@H](NC(=O)CCCCCCCCCCCCCCCCC(=O)O)C(=O)O)NC(=O)C(C)(C)NC(=O)[C@@H](NC(=O)[C@H](CO)NC(=O)[C@H](CC(C)C)NC(=O)[C@H](CC(=O)O)NC(=O)[C@H](CO)NC(=O)[C@@H](NC(=O)[C@H](Cc1ccccc1)NC(=O)[C@@H](NC(=O)CNC(=O)[C@H](CCC(=O)O)NC(=O)C(C)(C)NC(=O)[C@H](Cc1ccc(O)cc1)NC)[C@@H](C)O)[C@@H](C)CC)[C@@H](C)CC)C(=O)N[C@@H](Cc1c[nH]cn1)C(=O)N[C@@H](CCC(N)=O)C(=O)NC(C)(C)C(=O)N[C@@H](CCC(=O)O)C(=O)N[C@@H](Cc1ccccc1)C(=O)N[C@H](C(=O)N[C@@H](CCC(=O)O)C(=O)N[C@@H](Cc1c[nH]c2ccccc12)C(=O)N[C@@H](CC(C)C)C(=O)N[C@@H](CC(C)C)C(=O)N[C@@H](C)C(=O)N[C@@H](CCC(N)=O)C(=O)NCC(=O)N1CCC[C@H]1C(=O)N[C@@H](CO)C(=O)N[C@@H](CO)C(=O)NCC(=O)N[C@@H](C)C(=O)N1CCC[C@H]1C(=O)N1CCC[C@H]1C(=O)N1CCC[C@H]1C(=O)N[C@@H](CO)C(N)=O)[C@@H](C)CC
notes: as for B1
B4: SEQ ID NO: 11 (peptide)
peptide: Y[Aib]EGTFISDLSI[Aib]K([AEEA-AEEA-γGlu-C18 diacid])DRIHQEEFIEWLLAQGPSSGAPPPS-OH
modifications: N-terminus assumed
SMILES: CC[C@H](C)[C@H](NC(=O)[C@H](Cc1ccccc1)NC(=O)[C@H](CCC(=O)O)NC(=O)[C@H](CCC(=O)O)NC(=O)[C@H](CCC(N)=O)NC(=O)[C@H](Cc1c[nH]cn1)NC(=O)[C@@H](NC(=O)[C@H](CCCNC(=N)N)NC(=O)[C@H](CC(=O)O)NC(=O)[C@H](CCCCNC(=O)COCCOCCNC(=O)COCCOCCNC(=O)CC[C@H](NC(=O)CCCCCCCCCCCCCCCCC(=O)O)C(=O)O)NC(=O)C(C)(C)NC(=O)[C@@H](NC(=O)[C@H](CO)NC(=O)[C@H](CC(C)C)NC(=O)[C@H](CC(=O)O)NC(=O)[C@H](CO)NC(=O)[C@@H](NC(=O)[C@H](Cc1ccccc1)NC(=O)[C@@H](NC(=O)CNC(=O)[C@H](CCC(=O)O)NC(=O)C(C)(C)NC(=O)[C@@H](N)Cc1ccc(O)cc1)[C@@H](C)O)[C@@H](C)CC)[C@@H](C)CC)[C@@H](C)CC)C(=O)N[C@@H](CCC(=O)O)C(=O)N[C@@H](Cc1c[nH]c2ccccc12)C(=O)N[C@@H](CC(C)C)C(=O)N[C@@H](CC(C)C)C(=O)N[C@@H](C)C(=O)N[C@@H](CCC(N)=O)C(=O)NCC(=O)N1CCC[C@H]1C(=O)N[C@@H](CO)C(=O)N[C@@H](CO)C(=O)NCC(=O)N[C@@H](C)C(=O)N1CCC[C@H]1C(=O)N1CCC[C@H]1C(=O)N1CCC[C@H]1C(=O)N[C@@H](CO)C(=O)O
notes: as for B1
B5: SEQ ID NO: 10 (peptide)
peptide: Y[Aib]EGTFISDLSI[Aib]K([AEEA-AEEA-γGlu-C20 diacid])DRIHQEEFIEWLLAQGPSSGAPPPS-NH2
modifications: N-terminus assumed
SMILES: CC[C@H](C)[C@H](NC(=O)[C@H](Cc1ccccc1)NC(=O)[C@H](CCC(=O)O)NC(=O)[C@H](CCC(=O)O)NC(=O)[C@H](CCC(N)=O)NC(=O)[C@H](Cc1c[nH]cn1)NC(=O)[C@@H](NC(=O)[C@H](CCCNC(=N)N)NC(=O)[C@H](CC(=O)O)NC(=O)[C@H](CCCCNC(=O)COCCOCCNC(=O)COCCOCCNC(=O)CC[C@H](NC(=O)CCCCCCCCCCCCCCCCCCC(=O)O)C(=O)O)NC(=O)C(C)(C)NC(=O)[C@@H](NC(=O)[C@H](CO)NC(=O)[C@H](CC(C)C)NC(=O)[C@H](CC(=O)O)NC(=O)[C@H](CO)NC(=O)[C@@H](NC(=O)[C@H](Cc1ccccc1)NC(=O)[C@@H](NC(=O)CNC(=O)[C@H](CCC(=O)O)NC(=O)C(C)(C)NC(=O)[C@@H](N)Cc1ccc(O)cc1)[C@@H](C)O)[C@@H](C)CC)[C@@H](C)CC)[C@@H](C)CC)C(=O)N[C@@H](CCC(=O)O)C(=O)N[C@@H](Cc1c[nH]c2ccccc12)C(=O)N[C@@H](CC(C)C)C(=O)N[C@@H](CC(C)C)C(=O)N[C@@H](C)C(=O)N[C@@H](CCC(N)=O)C(=O)NCC(=O)N1CCC[C@H]1C(=O)N[C@@H](CO)C(=O)N[C@@H](CO)C(=O)NCC(=O)N[C@@H](C)C(=O)N1CCC[C@H]1C(=O)N1CCC[C@H]1C(=O)N1CCC[C@H]1C(=O)N[C@@H](CO)C(N)=O
notes: as for B1

The target in one test is T1, human GIP receptor. The experiment in a line: cell-based or functional assay.
B1: the “hGIPR EC50, cAMP in human adipocytes” value worked out at 0.5 nM and the “hGIPR Emax, cAMP in human adipocytes” value is 116%.
Turning to B2, the “hGIPR EC50, cAMP in human adipocytes” value stood at 0.3 nM and the “hGIPR Emax, cAMP in human adipocytes” value was 121%.
The corresponding values for B3 are 0.5 nM and 116%.
For B4, the “hGIPR EC50, cAMP in human adipocytes” value came to 1 nM and the “hGIPR Emax, cAMP in human adipocytes” value was found to be 122%.
With B5, the “hGIPR EC50, cAMP in human adipocytes” value is 0.4 nM and the “hGIPR Emax, cAMP in human adipocytes” value amounted to 127%.

The next test deals with T2, human GLP-1 receptor (human, UniProt P43220 24-463).
T2 construct: whole, on cells; also called hGLP-1R; hGLP-1 receptor
The experiment in a line: displacement of [125I]GLP-1 from hGLP-1R HEK-293 membranes, SPA. On the technique in general: In a radioligand displacement assay an active substance lowers the binding of a labelled ligand.
As to B1, the 50% inhibitory concentration (IC50) (commonly the concentration that gives 50% inhibition) is 144 nM.
Regarding B2, the IC50 was 105 nM.
Turning to B3, the IC50 came to 186 nM.
B4 registered a half-maximal inhibitory concentration (IC50) of 288 nM.
Still for that read-out and setting: next, B5: 223 nM.

The target of the next test is T1, human GIP receptor. The experiment in a line: cell-based or functional assay. The source holds these as a separate data set.
For B1, the “EC50 hGIPR 0% HSA, cAMP in HEK-293 cells” value is 0.00012 nM and the “EC50 hGIPR 0.1% HSA, cAMP in HEK-293 cells” value (shortened to “EC50 hGIPR 0.1% HSA, cAMP”) worked out at 0.00088 nM.
As to B2, the “EC50 hGIPR 0% HSA, cAMP in HEK-293 cells” value was determined as 0.00017 nM and the “EC50 hGIPR 0.1% HSA, cAMP” value is 0.00286 nM.
Regarding B3, the “EC50 hGIPR 0% HSA, cAMP in HEK-293 cells” value amounted to 0.00019 nM and the “EC50 hGIPR 0.1% HSA, cAMP” value turned out to be 0.00137 nM.
The corresponding values for B4 are 0.00019 nM and 0.00224 nM.
Turning to B5, the “EC50 hGIPR 0% HSA, cAMP in HEK-293 cells” value was found to be 0.00025 nM and the “EC50 hGIPR 0.1% HSA, cAMP” value is 0.00537 nM.

A further test concerns the target T2, human GLP-1 receptor. The experiment in a line: cell-based or functional assay.
Take B1: the “EC50 hGLP-1R 0% HSA, cAMP in HEK-293 cells” value (shortened to “EC50 hGLP-1R 0% HSA, cAMP”) was > 10 nM.
With B2, the “EC50 hGLP-1R 0% HSA, cAMP” value was > 10 nM.
Regarding B3, the “EC50 hGLP-1R 0% HSA, cAMP” value is > 10 nM.
Take B4: the “EC50 hGLP-1R 0% HSA, cAMP” value is > 10 nM.
For the molecule B5, the “EC50 hGLP-1R 0% HSA, cAMP” value is > 10 nM.
